The record followed here is PMC5038328, “IMP-27, a Unique Metallo-β-Lactamase Identified in Geographically Distinct Isolates of Proteus mirabilis” (Antimicrobial Agents and Chemotherapy, 2016).

Bounds are passed on as bounds.

Data set [1] concerns CC(C)(O/N=C(\C(=O)N[C@@H]1C(=O)N2C(C(=O)[O-])=C(C[n+]3ccccc3)CS[C@H]12)c1csc(N)n1)C(=O)O. Description: spectrophotometric initial hydrolysis rates. The format is biochemical, Proteus mirabilis. From the text: (§1) spectrophotometric initial hydrolysis rates on IMP-27
The subject of data set [2] is O=C(Cc1cccs1)N[C@@H]1C(=O)N2C(C(=O)O)=C(/C=C/c3ccc([N+](=O)[O-])cc3[N+](=O)[O-])CS[C@H]12. Description: spectrophotometric initial hydrolysis rates. The format is biochemical, Proteus mirabilis.
Text: as §1

Data set [3] relates to CO/N=C(\C(=O)N[C@@H]1C(=O)N2C(C(=O)[O-])=C(C[N+]3(C)CCCC3)CS[C@H]12)c1csc(N)n1. Put plainly: spectrophotometric initial hydrolysis rates. The format is biochemical, Proteus mirabilis.
Text: as §1

Data set [4] concerns CO/N=C(\C(=O)N[C@@H]1C(=O)N2C(C(=O)O)=C(COC(C)=O)CS[C@H]12)c1csc(N)n1. Put plainly: spectrophotometric initial hydrolysis rates. The format is biochemical, Proteus mirabilis.
Text: as §1

For data set [5], the system named is C[C@@H](O)[C@H]1C(=O)N2C(C(=O)O)=C(SCCN=CN)C[C@H]12. Description: competition with nitrocefin hydrolysis, spectrophotometric. The format is biochemical, Proteus mirabilis. As to conditions: Km measured as Ki with nitrocefin as reporter substrate. From the text: (§2) competition with nitrocefin hydrolysis, spectrophotometric on IMP-27
Data set [6] concerns C[C@@H](O)[C@H]1C(=O)N2C(C(=O)O)=C(S[C@@H]3CN[C@H](C(=O)N(C)C)C3)[C@H](C)[C@H]12. The description is as above. The format is biochemical, Proteus mirabilis. As to conditions: Km measured as Ki with nitrocefin as reporter substrate.
Text: as §2

Data set [7] deals with T1, IMP-27 (Proteus mirabilis, UniProt F8UQX1).
T1 construct: gene PCR amplified from 2009 isolate DNA, pET-9a, E. coli BL21(DE3)/pLysS; KF501391 is the class 2 integron record
Description: inhibition of nitrocefin hydrolysis, spectrophotometric initial rates. The format is biochemical.

For data set [8], the target named is T1, IMP-27. Put plainly: spectrophotometric initial rates. The format is biochemical. From the text: spectrophotometric initial rates on IMP-27

T1 sequence (F8UQX1 entry or part of it): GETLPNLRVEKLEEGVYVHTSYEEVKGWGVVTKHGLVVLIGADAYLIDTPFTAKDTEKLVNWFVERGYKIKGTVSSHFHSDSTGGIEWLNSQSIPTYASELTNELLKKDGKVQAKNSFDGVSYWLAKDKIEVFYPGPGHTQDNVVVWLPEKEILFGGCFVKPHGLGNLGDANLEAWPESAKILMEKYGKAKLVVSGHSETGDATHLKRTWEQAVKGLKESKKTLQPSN

As for IMP-27 (Proteus mirabilis), the Km in data set [1] is 54 ± 4.3 µM; in data set [2], 36 ± 3.1 µM; in data set [3], 53 ± 3.6 µM; in data set [4], 24 ± 1.9 µM; in data set [5], 310 ± 19 µM; in data set [6], 2.3 ± 0.8 µM. Further, the kcat in data set [1] was determined as 0.7 ± 0.03 s⁻¹; in data set [2] it was 370 ± 15 s⁻¹; in data set [3], 8.1 ± 0.37 s⁻¹; in data set [4] it was 20 ± 0.66 s⁻¹; in data set [5] it was 34 ± 0.38 s⁻¹; in data set [6] it was 3.4 ± 0.53 s⁻¹. The kcat/Km in data set [1] is 13000 M⁻¹ s⁻¹; in data set [2], 1e+07 M⁻¹ s⁻¹; in data set [3], 150000 M⁻¹ s⁻¹; in data set [4], 860000 M⁻¹ s⁻¹; in data set [5] it was 110000 M⁻¹ s⁻¹; in data set [6], 1.5e+06 M⁻¹ s⁻¹.

With `CCN1CCN(C(=O)N[C@@H](C(=O)N[C@@H]2C(=O)N3[C@@H]2SC(C)(C)[C@@H]3C(=O)O)c2ccccc2)C(=O)C1=O` [piperacillin], the Ki on IMP-27 [7] (read-out: IMP-27 / Km or Ki) amounted to 3 mM.

Consider `O=C(O)c1cccc(C(=O)O)n1` [dipicolinic acid], for which the Ki at IMP-27 [7] (read-out: Ki) was 4.6 ± 0.13 mM.

As for `O=C(O)CN(CCN(CC(=O)O)CC(=O)O)CC(=O)O` [EDTA], the Ki at IMP-27 [7] (read-out: Ki) turned out to be 11 ± 0.9 mM.

As to `C[C@H]1[C@H](NC(=O)/C(=N\OC(C)(C)C(=O)O)c2csc(N)n2)C(=O)N1S(=O)(=O)O` [aztreonam], the Ki on IMP-27 [8] was more than 23 mM.
